Assays:
Test in all cases: fluorescence polarisation
[1] = molecular target: soluble HLA-A*11:01 class I molecule (fluorescence polarization assay)
[2] = molecular target: soluble HLA-A*03:01 class I molecule (fluorescence polarization assay)
[3] = molecular target: soluble HLA-A*02:01 class I molecule (fluorescence polarization assay)
[4] = molecular target: soluble HLA-B*07:02 class I molecule (fluorescence polarization assay)

Which IC50 [1] does the source give for VVVGARGVGK [KRAS G12R 7-16 peptide] here?
Its IC50 is 0.566 µM.

And the IC50 [2]?
Its IC50 is 3.24 µM.

How did the IC50 [3] turn out when KLVVVGAGGV [KRAS 5-14 wild-type peptide] was run?
Its IC50 is 10.9 µM.

For KLVVVGARGV [KRAS G12R 5-14 peptide], which IC50 [3] is on record?
Its IC50 is 20.7 µM.

GAGGVGKSAL [KRAS 10-19 wild-type peptide] was tested. Which IC50 [4] did it give?
Its IC50 is 76.9 µM.

With ALLAVGATK [gp17-25 peptide, Melanocyte protein PMEL] as the binder, how does the IC50 [1] read?
Its IC50 is 0.225 µM.

What about the IC50 [2] of the same binder?
The IC50 was 0.962 µM.

What does the source list for VVGARGVGK [KRAS G12R 8-16 peptide]?
IC50 [1]: 0.634 µM; IC50 [2]: 5.3 µM

Source: publication PMC8285372, “Biochemical and functional characterization of mutant KRAS epitopes validates this oncoprotein for immunological targeting” (Nature Communications, 2021)
